B1: LysP53: lysin from the genome of bacteriophage P53, amino acid sequence SEQ ID NO: 2, includes P104, about 24 kDa, expressed in E. coli (protein)
chain: MTMTTKRIFEHMRPNLTDSQVQALYKLMEKGADLDTIAQFAGVSPLVSTADVKQPSGFKFSQTSLKRLEGVNPKLVQVVNRALEISKEDFMVIEGVRTKESAWANWGKGRTAAQCQAAGVPTKYAQPSLAKVTWLTDPLKSKHMTGHAVDLAPIPLDWNDLKRFDLMAQAMFQASAELNIPIRWGADWDNDGVFREKGETDSPHFELAG

Tests used:
Gram-negative bacteria [1] = experiment: Activity comparison of P104 and LysP53 in vitro, overall; format: cell-based; conditions: stable phase, 37° C., 1 h
Description: (§1) A variety of strains including Acinetobacter baumannii, Pseudomonas aeruginosa, Klebsiella pneumoniae and Escherichia coli are cultured to stable phase (OD600nm between 1.2-1.4), respectively, and each precipitate is collected by centrifugation at 4° C., rinsed once with Tris-HCl buffer, and then the rinsed precipitate is dissolved in Tris-HCl buffer to obtain the bacterial solution. At the same time, mixed solutions including the same amount of the buffer and the above bacterial solution are prepared and used as the negative controls. After incubation at 37° C. for 1 h, the number (CFU) of the bacteria in the solutions are counted by plating on agar plates.

A. baumannii WHG40137 [2] = experiment: Time dependence of lysin LysP53 lysing A. baumannii WHG40137 (CFU plate count); format: cell-based, Acinetobacter baumannii; conditions: 100 μg/mL LysP53, logarithmic phase, 37° C.
Description: Acinetobacter baumannii (A. baumannii) WHG40137 is cultured to logarithmic phase (OD600nm between 0.4-0.6), and the precipitate is collected by low-temperature centrifugation, rinsed once with Tris-hydrochloride (Tris-HCl) buffer, and then the rinsed precipitate is dissolved in the buffer to obtain an A. baumannii WHG40137 bacterial solution. The lysin LysP53 prepared in the embodiment 2 is added in and mixed with the A. baumannii WHG40137 bacterial solution to make the final concentration of the lysin LysP53 to be 100 micrograms per milliliter (μg/mL). At the same time, a mixed solution including the same amount of the buffer and the above bacterial solution is prepared and used as negative control. During incubation of the solutions at 37° C., aliquots were sampled, respectively, at different times and used to count the number (colony-forming unit abbreviated as CFU) of the bacteria in the solutions by plating on agar plates.

A. baumannii WHG40137 [3] = experiment: Lytic activity of LysP53 against A. baumannii WHG40137 at different growth periods (CFU plate count); format: cell-based, Acinetobacter baumannii; conditions: 100 μg/mL LysP53, 37° C., 1 h; logarithmic phase (OD600 0.4-0.6) vs stable phase (OD600 1.2-1.4)
Description: A. baumannii WHG40137 is cultured to logarithmic phase (OD600nm between 0.4-0.6) or stable phase (OD600nm between 1.2-1.4) first. Then, the precipitates are collected by centrifugation at 4° C., rinsed once with Tris-HCl buffer, and dissolved in Tris-HCL buffer to obtain an A. baumannii WHG40137 bacterial solution. Finally, the lysin LysP53 prepared in the embodiment 2 is taken and mixed with the A. baumannii WHG40137 bacterial solution to make the final concentration of the lysin LysP53 to be 100 μg/mL. At the same time, a mixed solution including the same amount of the buffer and the above bacterial solution is prepared and used as the negative control. After incubation at 37° C. for 1 h, the number (CFU) of the bacteria in the solutions are counted by plating on agar plates.

A. baumannii WHG40137 [4] = experiment: Effect of pH on lytic activity of LysP53 against A. baumannii WHG40137 (CFU plate count); format: cell-based, Acinetobacter baumannii; conditions: 100 μg/mL LysP53, logarithmic phase, 1 h
Description: A. baumannii WHG40137 is cultured to logarithmic phase (OD600nm between 0.4-0.6) first. Then, the precipitates are collected by centrifugation at 4° C., rinsed once with Tris-HCl buffer, and dissolved in Tris-HCL buffer with different pH values (pH 5-8) to obtain A. baumannii WHG40137 bacterial solutions. Finally, the lysin LysP53 prepared in the embodiment 2 is taken and mixed with the A. baumannii WHG40137 bacterial solutions to make the final concentration of the lysin LysP53 to be 100 μg/mL. At the same time, mixed solutions including the same amount of the buffer and the above bacterial solution are prepared and used as the negative controls. After incubation at 37° C. for 1 h, the number (CFU) of the bacteria in the solutions are counted by plating on agar plates.

Acinetobacter baumannii [5] = experiment: Lysis spectrum of LysP53 in vitro (CFU plate count); format: cell-based; conditions: 100 μg/mL LysP53, stable phase, 37° C., 1 h
Description: (§2) A variety of strains including Acinetobacter baumannii, Pseudomonas aeruginosa, Klebsiella pneumoniae and Escherichia coli are cultured to stable phase (OD600nm between 1.2-1.4), respectively, and each precipitate is collected by centrifugation at 4° C., rinsed once with Tris-HCl buffer, and then the rinsed precipitate is dissolved in Tris-HCl buffer to obtain the bacterial solution. The lysin LysP53 prepared in the embodiment 2 is taken and mixed with the above bacterial solutions, respectively, to make the final concentration of the lysin LysP53 to be 100 μg/mL. At the same time, mixed solutions including the same amount of the buffer and each of the above bacterial solutions are prepared and used as negative controls. After incubation at 37° C. for 1 h, the number (CFU) of the bacteria in the solutions are counted by plating on agar plates.

Escherichia coli [6] = experiment: as above; format: cell-based; conditions: 100 μg/mL LysP53, stable phase, 37° C., 1 h
Description: as §2

Klebsiella pneumoniae [7] = experiment: as above; format: cell-based; conditions: 100 μg/mL LysP53, stable phase, 37° C., 1 h
Description: as §2

Pseudomonas aeruginosa [8] = experiment: as above; format: cell-based; conditions: 100 μg/mL LysP53, stable phase, 37° C., 1 h
Description: as §2

Gram-negative bacteria [9] = experiment: Lysis spectrum of LysP53 in vitro, overall; format: cell-based; conditions: 100 μg/mL LysP53, stable phase, 37° C., 1 h
Description: as §2

A. baumannii WHG40137 [10] = experiment: Effect of EDTA concentration on lytic activity of LysP53 against A. baumannii WHG40137 (CFU plate count); format: cell-based, Acinetobacter baumannii; conditions: 100 μg/mL LysP53, stable phase, EDTA 0, 62.5, 125, 250, 500 μM, 37° C., 1 h
Description: A. baumannii WHG40137 is cultured to stable phase (OD600nm between 1.2-1.4), and the precipitate is collected by centrifugation at 4° C., rinsed once with a Tris-HCl buffer, and is dissolved in Tris-HCl buffer to obtain an A. baumannii WHG40137 bacterial solution. The lysin LysP53 prepared in the embodiment 2 is taken and mixed with the A. baumannii WHG40137 bacterial solution containing EDTA at different concentrations (0 μM, 62.5 μM, 125 μM, 250 μM, and 500 μM) to make the final concentration of the lysin LysP53 to be 100 μg/mL. At the same time, mixed solutions including the same amount of the Tris-HCl buffer solution and each of the above bacterial solutions are used as negative controls. After incubation at 37° C. for 1 h, the number (CFU) of the bacteria in the solutions are counted by plating on agar plates.

A. baumannii WHG40137 [11] = experiment: Lytic activity of LysP53 against A. baumannii WHG40137 on burned skin surfaces of mice; format: in vivo, Acinetobacter baumannii; conditions: female BALB/c mice, burn site infected 24 h, 14 μg LysP53 topical vs 4 grams (g) minocycline, 4 h after treatment
Description: Female BALB/c mice aged 6-8 weeks are anesthetized by intraperitoneal injection of 40 milligrams per kilogram (mg/kg) pentobarbital (also referred to as pentobarbitone), and then shaved with an electric razor to remove 2 square centimeters (cm 2) of hair on the back. Partial burn can be achieved by exposing the naked skin to water at 65° C. for 12 s. 10 μL, of A. baumannii WHG40137 with a concentration of 10^8 CFU/mL is taken and inoculated at the burn site, and after colonization for 24 h, the mice are randomly divided into three groups. In the first group, there are 12 mice, and 14 μg of the lysin LysP53 is applied to the burn site of each mouse. In the second group, there are 12 mice, and 4 grams (g) minocycline is applied to the burn site of each mouse. In the third group, there are 9 mice, and the same amount of buffer solution is applied to the burn site of each mouse. Four hours after treatment, the mice are euthanatized and the infected skin is excised, infiltrated with 1 mL of phosphate buffered saline with Tween® 20 (PBST) and 0.1% Triton X-100 for 2 min, and homogenized with a tissue cell disruptor (NewZongKe, Wuhan, China). Finally, an aliquot of the suspension is diluted and plated to an LB plate containing 4 μg/mL of gentamicin and 2 μg/mL of meropenem, and the number of the colonies are counted after overnight culture.

Acinetobacter baumannii [12] = experiment: Activity comparison of P104 and LysP53 in vitro (CFU plate count); format: cell-based; conditions: stable phase, 37° C., 1 h
Description: as §1

Escherichia coli [13] = experiment: as above; format: cell-based; conditions: stable phase, 37° C., 1 h
Description: as §1

Klebsiella pneumoniae [14] = experiment: as above; format: cell-based; conditions: stable phase, 37° C., 1 h
Description: as §1

Pseudomonas aeruginosa [15] = experiment: as above; format: cell-based; conditions: stable phase, 37° C., 1 h
Description: as §1

Row | Molecule | lytic activity against Gram-negative bacteria (Gram-negative bacteria [1]) | lytic activity against Acinetobacter baumannii WHG40137 (A. baumannii WHG40137 [2]) | concentration of Acinetobacter baumannii WHG40137 after incubation for 15 min (A. baumannii WHG40137 [2]; Tris-HCl buffer, 15 min) | concentration of Acinetobacter baumannii WHG40137 after incubation for 1 h (A. baumannii WHG40137 [2]; Tris-HCl buffer, 1 h) | lytic activity in logarithmic phase versus stable phase (A. baumannii WHG40137 [3]) | lytic activity in pH range 5.0-6.5 versus pH range 7.0-8.0 (A. baumannii WHG40137 [4]; 37° C.) | concentration of the bacteria after incubation with LysP53 at pH 5.0-6.5 (A. baumannii WHG40137 [4]; pH 5.0-6.5, 37° C.) | lytic effect on a variety of Acinetobacter baumannii strains (Acinetobacter baumannii [5]) | lytic effect on Escherichia coli (Escherichia coli [6]) | lytic effect on Klebsiella pneumoniae (Klebsiella pneumoniae [7]) | lytic effect on Pseudomonas aeruginosa (Pseudomonas aeruginosa [8]) | spectrum in lysing Gram-negative bacteria (Gram-negative bacteria [9]) | lytic activity with increasing EDTA concentration (A. baumannii WHG40137 [10]) | lytic activity on mouse skin compared with minocycline (A. baumannii WHG40137 [11]) | lytic activity against Acinetobacter baumannii, LysP53 compared with P104 (Acinetobacter baumannii [12]) | activity against Escherichia coli, LysP53 compared with P104 (Escherichia coli [13]) | activity against Klebsiella pneumoniae, LysP53 compared with P104 (Klebsiella pneumoniae [14]) | activity against Pseudomonas aeruginosa, LysP53 compared with P104 (Pseudomonas aeruginosa [15])
1 | P104: antibacterial peptide found in the genome of bacteriophage P53, amino acid sequence SEQ ID NO: 1, chemically synthesized (MTMTTKRIFEHMRPNLTDSQVQALYKLMEKGAD) | broad-spectrum lytic activity | – | – | – | – | – | – | – | – | – | – | – | – | – | – | – | – | –
2 | B1 | broad-spectrum lytic activity | good lytic activity | greatly reduced | about 10 CFU/mL | higher lytic activity | better lytic activity | about 10 CFU/mL | good lytic effect | good lytic effect | good lytic effect | good lytic effect | broad spectrum | gradually higher | higher lytic activity | stronger lytic activity | comparable activity | comparable activity | comparable activity

Source: patent publication US20240139295A1 (priority 2021, published 2024)
